Measurements: patent US7572600B2, “Enzymatic activities in chemokine-mediated inflammation” (Chemocentryx, Inc., priority 2004, dated 2009)
Blank lines part the entries; values can stand above or below the molecule they belong to.

How the values were obtained:
human neutrophils = test: Chemotaxis of human neutrophils; type: cell-based
Method: (§1) Chemotaxis assay. L1.2-CCR1 transfectants, THP-1 cells, human monocytes and human neutrophils were collected by centrifugation and resuspended in HBSS containing 0.1% BSA. Chemotaxis assays were performed in 96-well ChemoTx® microplates (Neuroprobe, Rockville, Md.) as follows. Chemokines were added to the lower wells (final volume 29 μL), and 20 μL of cell suspension (5×10^6 cells/mL) was added to the polycarbonate filter (3 μm pore size for neutrophils, 5 μm for other 3 cell types). After incubation at 37° C. in the presence of 5% CO2 for 1 hr (neutrophils), 90 min (monocytes) or 2 h (THP-1 and L1.2-CCR1), cells were removed from the upper surface of the filter by scraping. Cells that migrated into the lower chamber were quantified by using the CyQuant cell proliferation assay kit (Molecular Probes, Eugene, Oreg.) and analyzed with a Tecan (Durham, N.C.) fluorimeter (excitation at 480 nm, emission at 530 nm). Data were analyzed and plotted in arbitrary units of fluorescence using Prism (GraphPad Software, San Diego, Calif.).
(§2) Chemotaxis assays. L1.2-CCR1 and L1.2-FPRL1 transfectants, monocytes and neutrophils were collected by centrifugation and resuspended in HBSS with 0.1% BSA. The assays were performed in 96-well ChemoTx® microplates (Neuroprobe, Rockville, Md.). Chemokines were diluted in HBSS with 0.1% BSA and added to the lower wells (final volume 29 μL), then 20 μL of cell suspension (5×10^6 cells/mL for monocytes; 2.5×10^6 cells/mL for neutrophils) were added to the polycarbonate filters (5 μm pore size for monocytes and FPRL1 transfectants; 3 μm pore size for neutrophils). After incubation for 90 min (37° C., 100% humidity, 5% CO2), the filters were removed and the cells that migrated into the lower chamber were quantified by using the CyQuant cell proliferation assay kit (Molecular Probes, Oreg.).

human monocytes [1] = test: Chemotaxis of human monocytes; type: cell-based
Method: as §1, §2

CCR1 [2] = target: T1, CCR1 (Homo sapiens, UniProt P32246); test: Calcium mobilization in murine L1.2 cells expressing human CCR1; type: cell-based; parameters: expressed in transfected cells; host or cells: murine L1.2 cells (G-418 selected transfectant); conditions: for calcium mobilization: L1.2-CCR1 cells
T1 sequence (P32246 1-355): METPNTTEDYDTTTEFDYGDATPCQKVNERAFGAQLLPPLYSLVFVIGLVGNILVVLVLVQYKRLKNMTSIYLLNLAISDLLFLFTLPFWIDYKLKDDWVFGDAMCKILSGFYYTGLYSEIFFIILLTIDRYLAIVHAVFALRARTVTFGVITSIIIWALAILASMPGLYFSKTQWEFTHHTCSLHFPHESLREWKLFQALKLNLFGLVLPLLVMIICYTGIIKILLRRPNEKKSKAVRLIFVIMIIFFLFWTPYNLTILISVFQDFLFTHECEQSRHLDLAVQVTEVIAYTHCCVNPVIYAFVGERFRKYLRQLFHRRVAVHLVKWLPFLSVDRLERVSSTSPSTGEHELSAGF
Method: (§3) Calcium Mobilization Assay. Cells were loaded for 1 hour with 2 μM indo-1/AM dye (Molecular Probes, Eugene, Oreg.) in culture medium, then washed with 10 ml PBS and resuspended at 10^6/ml in HBSS containing 1% FBS. Cytosolic calcium responses were determined using a Photon Technology International (Lawrenceville, N.J.) fluorimeter, with excitation at 350 nm and dual emission at 400 and 490 nm. Alternatively, cells were loaded with 5 μg/ml Fluo-4 AM dye (Molecular Probes, Eugene, Oreg.), then washed and analyzed on a Fluorometric Imaging Plate Reader 384 (FLIPR^384 Molecular Devices, Sunnyvale, Calif.), with 505 nm excitation and 530 nm emission.
(§4) Receptor signaling assay. For individual measurements, cells were loaded for 45 min at room temperature with 2 μM indo-1/AM (Invitrogen, Carlsbad Calif.) in culture medium, then washed with 10 ml PBS and resuspended at 10^6 cells/ml in HBSS containing 0.1% BSA. Cytosolic calcium levels were determined using a Photon Technology International fluorimeter (excitation at 350 nm, ratio of dual emission at 400 and 490 nm). For measuring calcium dose responses, cells were analyzed with a Fluorometric Imaging Plate Reader 384 (FLIPR^384) (Molecular Devices, Sunnyvale, Calif.). Cells were loaded for 1 hr at 37° C. with 5 μM fluo-4 in HBSS with 0.1% BSA, then washed, transferred to black-wall 96-well plates, and subsequently excited at 505 nm with emission recorded at 530 nm with a standard protocol provided by the manufacture. Cells were stimulated with agonists 20 s after the monitoring of fluorescence began. Data were analyzed and plotted in arbitrary units of fluorescence using Prism. To ensure that responses were specific to FPRL1, we utilized a selective small-molecule antagonist of human FPRL1, generated by ChemoCentryx, which was optimized from a high throughput compound library screening approach.

human monocytes [3] = test: Calcium mobilization in freshly isolated human monocytes; type: cell-based
Method: as §3, §4

CCR1 [4] = target: T1, CCR1; test: Competition binding with 125I-MIP-1α on human monocytes; parameters: endogenous in cells; host or cells: human CD14+ monocytes from buffy coats
Method: Binding assay. Competition binding studies were conducted using monocytes, L1.2-CCR1 or L1.2-FPRL1 cells. Cells were incubated for 3 hr at 4° C. with ^125I-MIP-1α (final concentration ˜0.05 nM) or ^125I-WKYMVm (final concentration ˜0.01 nM) in buffer (25 mM HEPES, 140 mM NaCl, 1 mM CaCl2, 5 mM MgCl2 and 0.2% BSA, adjusted to pH 7.1) in the presence of increasing amounts of unlabeled chemokine. Reactions were aspirated onto PEI-treated GF/B glass filters using a cell harvester (Packard). Filters were washed twice (25 mM HEPES, 500 mM NaCl, 1 mM CaCl2, 5 mM MgCl2, adjusted to pH 7.1). Scintillant (MicroScint-10; 35 μl) was added to the filters and counted in a Packard Topcount scintillation counter. Data were analyzed and plotted using Prism (GraphPad Software, San Diego, Calif.).

L1.2-CCR1 cells = target: T2, L1.2-CCR1 cells (Homo sapiens, UniProt P32246); test: L1.2-CCR1 chemotaxis assay; type: cell-based; conditions: three-point titrations 0.5, 5, 50 nM, 2 hr
T2 construct: expressed in transfected cells; host or cells: murine L1.2 cells (G-418 selected transfectant)
T2 sequence (P32246 1-355): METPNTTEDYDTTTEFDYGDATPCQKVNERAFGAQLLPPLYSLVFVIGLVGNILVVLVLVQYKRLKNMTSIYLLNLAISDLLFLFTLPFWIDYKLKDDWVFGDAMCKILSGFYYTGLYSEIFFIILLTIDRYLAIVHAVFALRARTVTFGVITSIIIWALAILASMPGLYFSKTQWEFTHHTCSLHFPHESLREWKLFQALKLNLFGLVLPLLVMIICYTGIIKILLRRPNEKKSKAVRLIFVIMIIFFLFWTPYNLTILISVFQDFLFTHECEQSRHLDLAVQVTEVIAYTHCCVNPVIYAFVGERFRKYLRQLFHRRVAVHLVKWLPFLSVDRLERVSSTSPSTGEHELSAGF
Method: as §1

[5] = tested on: monocyte-derived dendritic cells; test: Calcium mobilization in monocyte-derived dendritic cells; type: cell-based, human; conditions: immature DC; after digestion with chymase, cathepsin G, elastase, synovial fluid or PMN sup #1
Method: Human monocytes were obtained from buffy coats purchased from the Stanford Blood Bank (Palo Alto, Calif.) by sedimentation on Ficoll-Paque (Amersham, Piscataway, N.J.) and selection with anti-CD14 magnetic beads (Miltenyi, Auburn, Calif.) according to the manufacturers' instructions. For generation of dendritic cells, monocytes were cultured for 6 days in RPMI-1640 medium containing 10% FBS (HyClone, Logan, Utah). On days 0, 2 and 4, GM-CSF and IL-4 (both purchased from R&D Systems, Minneapolis, Minn.) were added to the cultures at 1000 WHO unit/ml each. The cells were confirmed to be CD14^−CD1a^+ immature DC by FACS staining on day 6.
as §3
Immature and mature DC preparation. Immature DCs were derived by culturing CD14+ monocytes in T-175 cultured flasks at a density of 10^6 cells/ml in RPMI supplemented with 10% FBS. Recombinant human cytokines GM-CSF and IL-4 (final concentration 1000 and 500 U/ml, respectively) were added on day 0, 2, 4 and 6. Cells were harvested on day 6 as immature DCs and characterized for surface marker expression by flow cytometry. DC maturation was carried out by culturing day-6 immature DCs in RPMI-10% FBS supplemented with GM-CSF, IL-4 and 50 μg/ml polyIC (Sigma, St. Louis Mo.). After two more days of culture, cells were harvested as mature DCs and characterized by surface marker expression by flow cytometry.
as §4

CCR9 = target: T3, CCR9 (Homo sapiens, UniProt P51686); test: Calcium mobilization in Molt4 cells; type: cell-based; conditions: digestions at 1 nM, all proteases and fluids tested
T3 construct: endogenous in cells; host or cells: Molt4 cells (per the assay name)
T3 sequence (P51686 1-369): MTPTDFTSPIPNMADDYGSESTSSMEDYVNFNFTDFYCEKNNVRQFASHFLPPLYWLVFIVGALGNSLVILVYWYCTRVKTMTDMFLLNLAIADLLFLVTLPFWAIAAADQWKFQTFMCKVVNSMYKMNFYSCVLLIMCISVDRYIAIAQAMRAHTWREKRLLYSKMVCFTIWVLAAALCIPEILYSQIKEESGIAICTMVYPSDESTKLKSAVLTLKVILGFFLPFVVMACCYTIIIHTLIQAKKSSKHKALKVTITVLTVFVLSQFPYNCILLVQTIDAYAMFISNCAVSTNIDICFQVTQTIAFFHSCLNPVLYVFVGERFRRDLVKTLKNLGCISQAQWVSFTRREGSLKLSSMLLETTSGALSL
Method: as §3

[6] = undigested chemokine or peptide, 100 nM (CCL23β up to 250 nM)
[7] = 10 nM input chemokine, after digestion with proteases and fluids
[8] = 10 nM, undigested or recombinant chemokine

B2: CCL9/MIP-1γ: recombinant murine C6* chemokine (protein, listed as Homo sapiens)
chain: QITHATETKEVQSSLKAQQGLEIEMFHMGFQDSSDCCLSYNSRIQCSRFIGYFPTSGGCTRPGIIFISKRGFQVCANPSDRRVQRCIERLEQNSQPRTYKQ
- chemotaxis potency of truncated forms versus full-length chemokine (L1.2-CCR1 cells): greater potency
- calcium mobilization (CCR1 [2]; [7]): uniformly active
- calcium mobilization (CCR1 [2]; [8]): either not active or weakly active

B3: CCL6/C10: recombinant murine C6* chemokine (protein, listed as Homo sapiens)
chain: GLIQEMEKEDRRYNPPIIHQGFQDTSSDCCFSYATQIPCKRFIYYFPTSGGCIKPGIIFISRRGTQVCADPSDRRVQRCLSTLKQGPRSGNKVIA
- chemotaxis potency of truncated forms versus full-length chemokine (L1.2-CCR1 cells): greater potency
- chemotaxis (human monocytes [1]; 200 nM after digestion with chymase, cathepsin G or elastase): stimulated chemotaxis
- concentration with the most migration (human monocytes [1]; after digestion with synovial fluid #1): 2 nM
- calcium mobilization (CCR1 [2]; [7]): uniformly active
- calcium mobilization (CCR1 [2]; [8]): either not active or weakly active
- calcium mobilization versus full-length chemokine [5]: more efficacious
- calcium mobilization (human monocytes [3]; 100 nM after digestion with chymase, cathepsin G, elastase or synovial fluid): mobilized calcium
- calcium mobilization (human monocytes [3]; [6]): unable to induce calcium mobilization

Continued, in another order:

- inhibition of 125I-MIP-1α binding (CCR1 [4]): most potent competitor
B1: CCL23Δ24/MPIF-1: Recombinant CCL23/CKβ8 lacking the N-terminal 24 residues (46-120) (protein)
chain: RFHATSADCCISYTPRSIPCSLLESYFETNSECSKPGVIFLTKKGRRFCANPSDKQVQVCMRMLKLDTRIKTRKN
- chemotaxis (human neutrophils): unable to induce migration
- chemotaxis (human monocytes [1]; undigested): moderately strong chemoattraction
- calcium mobilization in the CCR1 transfectant (CCR1 [2]; L1.2 cells stably expressing human CCR1): effective at inducing calcium mobilization
- calcium mobilization (human monocytes [3]; [6]): strong calcium responses

- signaling through CCR9 after digestion (CCR9): inactivated
B4: CCL25/TECK: non-C6* β-chemokine signaling through CCR9 (protein, UniProt O15444 24-150, looked up)
C-C motif chemokine 25: QGVFEDCCLAYHYPIGWAVLRRAWTYRIQEVSGSCNLPAAIFYLPKRHRKVCGNPKSREVQRAMKLLDARNKVFAKLHHNTQTFQAGPHAVKKLSSGNSKLSSSKFSNPISSSKRNVSLLISANSGL
